Test [1] concerns wild-type S. cerevisiae BY4741. Briefly: Growth of wild-type yeast in glyphosate. The class given is cell-based, Saccharomyces cerevisiae. Particulars: 5 mM and 10 mM glyphosate. From the text: Previous research has primarily focused on E. coli as a chassis for selecting improved EPSP synthases. The present example details the development of S. cerevisiae as a model eukaryotic system for glyphosate resistance, thus requiring synthetically addicting this cell to the expression and activity of EPSPS in an effort to create a growth-based selection scheme. Yeast have previously been reported to be resistant to glyphosate.

In test [2] the test system is S. cerevisiae strain sKR-024. Briefly: Growth of synthetic yeast strain sKR-024 expressing EPSPS variants with or without glyphosate. As to conditions: for glyphosate tolerance in synthetic yeast host: mutants isolated from directed evolution. The class given is cell-based, Saccharomyces cerevisiae. The method, then: EPSPS variants were re-cloned into a clean p416-Core1p backbone and transformed into strain sKR-024 as described above. Colonies were then picked in triplicate into YSC-Ura-Leu and outgrown for 2 days at 30° C. Cultures were then diluted back to OD 0.001 in yeast minimal media (YMM) containing varying amounts of glyphosate as indicated. Growth rate measurements were then obtained using an Infinite M200 PRO microplate reader (Tecan, Männedorf, Switzerland) with incubation at 30° C. for 72-120 hours depending on growth rate of selected variants.
To determine if this system could further corroborate observations from previous literature, the well-studied EPSPS mutants T102I and P106S, and the combined double mutant TIPS (T102I-P106S) were generated and complemented into this yeast system. These mutations were reported to result in varying degrees of glyphosate resistance.
Having established low copy number and weak promoter expression of EPSPS variants, it was sought to recharacterize phenotypes under field conditions that are used in planta. […] It has been reported previously that under standard glyphosate foliar application, 0.3 mM or more of glyphosate (gly) can accumulate in a plant's root nodules and meristems. […] These trends support reported literature of mutants P106S and TIPS grown in various plant hosts. As a result, the present synthetic yeast model system closely resembles in planta observations and thus can be used to select for dual-trait EPSPS variants aimed at both enzymatic efficiency and glyphosate resistance.
Select mutants isolated from the final directed evolution campaign with the improved selection strategy were further evaluated in assorted glyphosate concentrations to determine growth characteristics. Mutants isolated from an EPSPS background were evaluated in media containing 0 mM and 0.25 mM glyphosate with the latter being the concentration at which wild-type EPSPS cannot grow after 100 hours. […] The non-glyphosate mono selection highlighted in blue represents mutations resulting from 5 subcultures in 0 mM glyphosate. The low glyphosate dual selection highlighted in light green represents mutants resulting from an additional subculture into 0.5 mM glyphosate. Lastly, the high glyphosate dual selection highlighted in dark green represent mutations isolated after subcultures in increasing levels of glyphosate, up to 10 mM.

Test [3] concerns transgenic maize plants. Briefly: Maize transformation with glyphosate selection, plantlet recovery and quality checks. The class given is in vivo, Zea mays. Particulars: for Number of young plants passing quality control checks: in vivo; for Number of plantlets generated: under glyphosate selection, same amount of starting material. From the text: Maize was used as a model system to test the functionality of the EPSPS variants because of detailed previous characterization of glyphosate tolerance in maize and a suitable transgenic plant generation protocol that relies on glyphosate. Plant transformation vectors were generated in which the native maize EPSPS sequence was used, which includes the native gene promoter elements, the native introns and exons and the native 3′ untranslated region and introduced mutations that corresponded to each of the selected amino acid changes. The native sequence was used to mimic as closely as possible how the selected EPSPS variants would perform if the variants were introduced directly in the genome without the help of strong expression elements. The following variants were selected for testing in a transgenic maize system: TIPS (as a control); TIPS-P126S-M217L-K296R; TIPS-P126S-K296R; T102I-P126S-K296R (where only the T102I change is present); P106S-P126S-K296R (where only the P106S change is present); and P126S-K296R (where neither of the TIPS changes are present).
Transgenic maize plants that expressed each of the six EPSPS variants were generated to determine if the variants conferred glyphosate tolerance to plants. The full DNA sequence encoding TIPS EPSPS (SEQ ID NO:1) was cloned from maize genomic DNA. In this sequence, the promoter and 5′ UTR are nucleotides 1:2556; the chloroplast transit peptide sequence is nucleotides 2557:2742; EXON 1 is nucleotides 2743:2856; INTRON 1 is nucleotides 2857:3384; EXON 2 is nucleotides 3385:3626; INTRON 2 is nucleotides 3627:3725; EXON 3 is nucleotides 3726:3879; INTRON 3 is nucleotides 3880:4152; EXON 4 is nucleotides 4153:4367; INTRON 4 is nucleotides 4368:4877; EXON 5 is nucleotides 4878:4995; INTRON 5 is nucleotides 4996:5155; EXON 6 is nucleotides 5156:5366; INTRON 6 is nucleotides 5367:5446; EXON 7 is nucleotides 5447:5508; INTRON 7 is nucleotides 5509:5617; EXON 8 is nucleotides 5618:5836; and the 3′ UTR is nucleotides 5837:6368. Mutations were then introduced into the EPSPS coding sequence in order to produce each of the six EPSPS variants to be tested. These mutated full genomic DNA sequences were then each cloned as a single expression cassette into plant transformation vectors.
Agrobacterium tumefaciens-mediated plant transformation was performed using methods known in the art. Glyphosate selection was used to select for transgenic events containing the transgene of interest and further screened for only those EPSPS variants that provided effective glyphosate tolerance in a plant cell. While all six EPSPS variants began the transformation process with the same amount of starting maize cellular material, there were differences in the number of small plantlets recovered that were capable of being transplanted to greenhouse soil media (Table 4). Transgenic events were further analyzed to determine transgene copy number. Healthy events with single copy of the transgene of interest were grown in the greenhouse soil media. Only three of the six EPSPS variants had more than one plant surviving. Up to twenty-five of these developing R0 plants were transplanted to larger pots and allowed to grow to maturity for seed collection in the greenhouse.

Test [4] has as its system transgenic maize plants. Briefly: Greenhouse glyphosate spray test on hybrid (hemizygous) transgenic maize. The class given is in vivo, Zea mays. The method, then:
To further evaluate the performance of EPSPS variants for glyphosate tolerance, transgenic maize plants comprising a single copy of the transgene encoding the EPSPS variants TIPS-P126S-M217L-K296R or TIPS-P126S-K296R were grown to maturity. Homozygous transgenic plants were crossed with an inbred line to produce hybrid seeds.
Plants from the hybrid seeds (hemizygous for the transgenes) of two independent transformation events for each of the two variants were grown in the greenhouse for glyphosate spray test. Roundup® PowerMax3, a commercial formulation of glyphosate, was applied at the third leaf stage at two rates: 1120 gram/hectare (1× the field rate) and 2240 gram/hectare (2× the field rate). The controls included an untreated untransformed control without glyphosate treatment, an untransformed control sprayed with glyphosate, and a TIPS positive control both sprayed with glyphosate. Glyphosate herbicide injury (plant stunting, chlorosis, necrosis, malformation, and death) was assessed by visual inspection of the plants 18 days after herbicide treatment. Herbicide injury rate was presented on a scale of 0 to 100 with “0” being no visible crop injury and “100” being complete crop injury or death.

On to `O=C(O)CNCP(=O)(O)O` [glyphosate, N-phosphonomethylglycine], for which the growth inhibition entry in test [1] is listed as “slight growth inhibition”.

B1: TIPS-P126S-M217L-K296R: maize EPSPS variant, SEQ ID NO:10 (protein)
chain: AGAEEIVLQPIKEISGTVKLPGSKSLSNRILLLAALSEGTTVVDNLLNSEDVHYMLGALRTLGLSVEADKAAKRAVVVGCGGKFPVEDSKEEVQLFLGNAGIAMRSLTAAVTAAGGNATYVLDGVSRMRERPIGDLVVGLKQLGADVDCFLGTDCPPVRVNGIGGLPGGKVKLSGSISSQYLSALLMAAPLALGDVEIEIIDKLISIPYVEMTLRLLERFGVKAEHSDSWDRFYIKGGQKYKSPKNAYVEGDASSASYFLAGAAITGGTVTVEGCGTTSLQGDVKFAEVLEMMGARVTWTETSVTVTGPPREPFGRKHLKAIDVNMNKMPDVAMTLAVVALFADGPTAIRDVASWRVKETERMVAIRTELTKLGASVEEGPDYCIITPPEKLNVTAIDTYDDHRMAMAFSLAACAEVPVAIRDPGCTRKTFPDYFDVLSTFVKN
modifications: Zea mays
For B1, the “growth in yeast minimal media without glyphosate” value in test [2] (0 mM glyphosate) was “high growth in non-glyphosate”. The results for the “glyphosate tolerance in synthetic yeast host” value in test [2] and in test [2] (listed as TIPS P126S/M217L/K296R) were “high glyphosate tolerance” and “high glyphosate tolerance (even higher than TIPS)”, respectively. For the same molecule, the “Number of young plants passing quality control checks” value with transgenic maize plants [3] stood at 13. For the same molecule, the “Number of plantlets generated” value in the test with transgenic maize plants [3] turned out to be 92. Besides, the tolerance to glyphosate result in the test with transgenic maize plants [4] (2× field rate) is reported as “full tolerance”; in the test with transgenic maize plants [4] (equivalent 1× field dose) it was “excellent tolerance”. For the same molecule, the “Average Injury At 1120 g/ha” value with transgenic maize plants [4] (Roundup PowerMax3, 1× field rate, 18 days after treatment, scale of 0 to 100) is recorded as 0. Also, the “Average Injury At 2240 g/ha” value in the test with transgenic maize plants [4] (Roundup PowerMax3, 2× field rate, 18 days after treatment, scale of 0 to 100) was 0.

B2: P106S-P126S-K296R: maize EPSPS variant, SEQ ID NO:13 (protein)
chain: AGAEEIVLQPIKEISGTVKLPGSKSLSNRILLLAALSEGTTVVDNLLNSEDVHYMLGALRTLGLSVEADKAAKRAVVVGCGGKFPVEDSKEEVQLFLGNAGTAMRSLTAAVTAAGGNATYVLDGVSRMRERPIGDLVVGLKQLGADVDCFLGTDCPPVRVNGIGGLPGGKVKLSGSISSQYLSALLMAAPLALGDVEIEIIDKLISIPYVEMTLRLMERFGVKAEHSDSWDRFYIKGGQKYKSPKNAYVEGDASSASYFLAGAAITGGTVTVEGCGTTSLQGDVKFAEVLEMMGARVTWTETSVTVTGPPREPFGRKHLKAIDVNMNKMPDVAMTLAVVALFADGPTAIRDVASWRVKETERMVAIRTELTKLGASVEEGPDYCIITPPEKLNVTAIDTYDDHRMAMAFSLAACAEVPVAIRDPGCTRKTFPDYFDVLSTFVKN
modifications: Zea mays
Consider B2, for which, in the test on transgenic maize plants [3], the “Number of young plants passing quality control checks” value is on record as 0 and the “Number of plantlets generated” value was found to be 39.

B3: P126S-K296R: maize EPSPS variant, SEQ ID NO:14 (protein)
chain: AGAEEIVLQPIKEISGTVKLPGSKSLSNRILLLAALSEGTTVVDNLLNSEDVHYMLGALRTLGLSVEADKAAKRAVVVGCGGKFPVEDSKEEVQLFLGNAGTAMRPLTAAVTAAGGNATYVLDGVSRMRERPIGDLVVGLKQLGADVDCFLGTDCPPVRVNGIGGLPGGKVKLSGSISSQYLSALLMAAPLALGDVEIEIIDKLISIPYVEMTLRLMERFGVKAEHSDSWDRFYIKGGQKYKSPKNAYVEGDASSASYFLAGAAITGGTVTVEGCGTTSLQGDVKFAEVLEMMGARVTWTETSVTVTGPPREPFGRKHLKAIDVNMNKMPDVAMTLAVVALFADGPTAIRDVASWRVKETERMVAIRTELTKLGASVEEGPDYCIITPPEKLNVTAIDTYDDHRMAMAFSLAACAEVPVAIRDPGCTRKTFPDYFDVLSTFVKN
modifications: Zea mays
As to B3, in the test with transgenic maize plants [3], the “Number of young plants passing quality control checks” value was determined as 1 and the “Number of plantlets generated” value worked out at 11.

Source of the values: patent US20260275304A1, “METHODS AND COMPOSITIONS FOR GLYPHOSATE TOLERANCE IN PLANTS” (Monsanto Technology LLC, priority 2023, published 2026).
